{
  "source": "paper PMC2731490",
  "about": "(Nature, 2009)",
  "key": {"[1]": {"target": "T1, pol V Mut (UmuD′2C–RecA), wild-type RecA (Escherichia coli, UniProt P0A7G6)", "T1 sequence (P0A7G6 2-353)": "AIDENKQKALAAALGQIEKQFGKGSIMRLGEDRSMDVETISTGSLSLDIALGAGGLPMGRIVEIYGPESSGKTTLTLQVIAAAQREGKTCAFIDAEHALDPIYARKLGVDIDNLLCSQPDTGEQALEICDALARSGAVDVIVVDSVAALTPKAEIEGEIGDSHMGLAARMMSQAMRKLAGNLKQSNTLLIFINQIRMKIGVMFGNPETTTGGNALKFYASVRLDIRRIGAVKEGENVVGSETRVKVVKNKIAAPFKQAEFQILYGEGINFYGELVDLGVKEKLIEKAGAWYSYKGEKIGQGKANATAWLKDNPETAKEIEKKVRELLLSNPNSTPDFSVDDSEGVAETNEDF", "T1 sequence (P04152 1-422 partner)": "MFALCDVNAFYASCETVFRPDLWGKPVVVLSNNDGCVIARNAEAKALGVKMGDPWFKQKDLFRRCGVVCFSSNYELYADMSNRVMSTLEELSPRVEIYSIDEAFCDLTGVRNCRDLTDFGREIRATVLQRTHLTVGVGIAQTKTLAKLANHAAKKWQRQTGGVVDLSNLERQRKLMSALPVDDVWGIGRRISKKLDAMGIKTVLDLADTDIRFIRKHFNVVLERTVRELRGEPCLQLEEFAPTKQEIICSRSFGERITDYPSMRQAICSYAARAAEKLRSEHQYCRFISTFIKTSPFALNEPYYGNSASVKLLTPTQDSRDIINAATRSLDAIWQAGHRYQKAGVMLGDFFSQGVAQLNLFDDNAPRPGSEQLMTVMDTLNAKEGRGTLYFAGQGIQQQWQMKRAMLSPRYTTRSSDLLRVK", "T1 sequence (P0AG11 25-139 partner limits assumed)": "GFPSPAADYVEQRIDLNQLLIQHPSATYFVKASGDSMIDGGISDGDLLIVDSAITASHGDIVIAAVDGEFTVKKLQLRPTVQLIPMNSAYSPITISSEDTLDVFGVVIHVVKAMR", "assay": "hairpin primer/template extension, […]-labelled DNA", "type": "biochemical", "settings": "nucleotide added after activation; RecA* absent; hydrolysis not needed"}, "UmuC": {"target": "T2, UmuC (E. coli, UniProt P04152 1-422)", "T2 sequence (looked up)": "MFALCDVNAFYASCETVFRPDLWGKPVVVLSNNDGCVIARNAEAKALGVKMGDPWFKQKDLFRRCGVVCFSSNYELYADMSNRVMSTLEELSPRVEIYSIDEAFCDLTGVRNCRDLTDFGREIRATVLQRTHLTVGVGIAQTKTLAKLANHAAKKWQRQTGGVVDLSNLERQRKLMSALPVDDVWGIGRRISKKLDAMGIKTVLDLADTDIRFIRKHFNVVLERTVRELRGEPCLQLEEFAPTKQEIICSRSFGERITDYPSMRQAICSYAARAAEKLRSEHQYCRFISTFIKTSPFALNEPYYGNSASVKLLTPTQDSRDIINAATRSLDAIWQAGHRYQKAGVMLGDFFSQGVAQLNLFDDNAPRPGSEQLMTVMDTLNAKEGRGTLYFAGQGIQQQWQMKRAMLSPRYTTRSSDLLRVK", "assay": "SEC-MALS"}, "[2]": {"target": "T3, DNA polymerase V (UmuD′2C) (E. coli, UniProt P04152 1-422; P0AG11 25-139)", "T3 sequence (looked up) 1": "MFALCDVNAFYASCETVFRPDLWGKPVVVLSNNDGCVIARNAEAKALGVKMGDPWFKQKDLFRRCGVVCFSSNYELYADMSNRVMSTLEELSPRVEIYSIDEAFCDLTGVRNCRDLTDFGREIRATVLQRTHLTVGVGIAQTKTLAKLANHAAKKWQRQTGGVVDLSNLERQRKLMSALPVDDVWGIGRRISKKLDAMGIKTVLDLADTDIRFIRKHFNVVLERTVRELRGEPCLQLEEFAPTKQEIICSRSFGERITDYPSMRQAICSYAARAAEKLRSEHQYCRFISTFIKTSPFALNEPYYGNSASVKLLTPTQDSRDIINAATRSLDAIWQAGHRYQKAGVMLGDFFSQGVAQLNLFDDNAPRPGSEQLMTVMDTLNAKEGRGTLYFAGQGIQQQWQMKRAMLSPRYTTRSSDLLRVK", "T3 sequence (looked up) 2": "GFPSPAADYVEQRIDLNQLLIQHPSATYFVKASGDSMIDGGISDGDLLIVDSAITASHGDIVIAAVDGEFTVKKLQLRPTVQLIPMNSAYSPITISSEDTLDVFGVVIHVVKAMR"}},
  "data": [
    {"molecule": "Nc1ncnc2c1ncn2[C@@H]1O[C@H](COP(=O)(O)OP(=O)(O)OP(=O)(O)O)[C@@H](O)[C@H]1O", "note": "[ATP]", "values": [
      {"measurement": "hairpin primer/template extension, 32P-labelled DNA", "setting": "[1]", "result": "pol V Mut activated with wild-type RecA* is inactive in the absence of added ATP or ATPγS"}
    ]},
    {"molecule": "UmuD′ (natural protein, E. coli, UniProt P0AG11 25-139, looked up) GFPSPAADYVEQRIDLNQLLIQHPSATYFVKASGDSMIDGGISDGDLLIVDSAITASHGDIVIAAVDGEFTVKKLQLRPTVQLIPMNSAYSPITISSEDTLDVFGVVIHVVKAMR", "values": [
      {"measurement": "binding result", "setting": "UmuC", "result": "binds"}
    ]},
    {"molecule": "wild-type RecA (natural protein, E. coli, UniProt P0A7G6 1-353, looked up) MAIDENKQKALAAALGQIEKQFGKGSIMRLGEDRSMDVETISTGSLSLDIALGAGGLPMGRIVEIYGPESSGKTTLTLQVIAAAQREGKTCAFIDAEHALDPIYARKLGVDIDNLLCSQPDTGEQALEICDALARSGAVDVIVVDSVAALTPKAEIEGEIGDSHMGLAARMMSQAMRKLAGNLKQSNTLLIFINQIRMKIGVMFGNPETTTGGNALKFYASVRLDIRRIGAVKEGENVVGSETRVKVVKNKIAAPFKQAEFQILYGEGINFYGELVDLGVKEKLIEKAGAWYSYKGEKIGQGKANATAWLKDNPETAKEIEKKVRELLLSNPNSTPDFSVDDSEGVAETNEDF", "values": [
      {"measurement": "stoichiometry N", "setting": "[2]", "result": 1, "unit": "RecA per UmuC per UmuD′2"}
    ]}
  ]
}
